# Test results from patent US7192733B2, “Methods and means for modulating PGE synthase activity” (Karolinska Innovations AB, priority 1998, dated 2007).
# T1: human PGE synthase (Homo sapiens, UniProt O14684)
# T1 construct: made in house; host or cells: E. coli BL21 (DE3) pLysSL, vector pSP19T7LT; membrane fraction
# T1 sequence (O14684 1-152): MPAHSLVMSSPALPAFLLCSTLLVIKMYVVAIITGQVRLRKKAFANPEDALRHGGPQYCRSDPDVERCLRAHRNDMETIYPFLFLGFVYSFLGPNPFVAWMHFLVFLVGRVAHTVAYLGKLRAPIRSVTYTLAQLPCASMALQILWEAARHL
# B1: ratMGST1: rat microsomal glutathione S-transferase 1 expressed in bacteria, control membrane fraction (protein, UniProt P08011 2-155, looked up)
# Microsomal glutathione …: ADLKQLMDNEVLMAFTSYATIILAKMMFLSSATAFQRLTNKVFANPEDCAGFGKGENAKKFLRTDEKVERVRRAHLNDLENIVPFLGIGLLYSLSGPDLSTALIHFRIFVGARIYHTIAYLTPLPQPNRGLAFFVGYGVTLSMAYRLLRSRLYL
# B2: PGE synthase: human PGE synthase (SEQ ID NO: 2) expressed in E. coli, tested as bacterial membrane fraction (protein, listed as Homo sapiens)
# chain: T1 sequence (O14684 1-152)
# Assays:
# [1] = test system: 17.5 kDa protein from sheep seminal vesicles (PGE synthase activity); details: read-out: Km for PGH2; cited from earlier work
# [2] = test system: 180 kDa protein from sheep seminal vesicles (PGE synthase activity); details: larger (180 kDa) protein; read-out: Km for PGH2; cited from earlier work
# human PGE synthase = molecular target: T1, human PGE synthase; assay: PGE synthase enzyme assay (inhibition of PGE2 formation from PGH2); format: biochemical; details: 1 mM for 5 min prior to incubation; membrane fraction from bacteria expressing PGE synthase
# Description: (§1) The protein sample was diluted in potassium inorganic phosphate buffer (0.1 M, pH=7.4) containing 2.5 mM reduced glutathione. The reaction (total volume=100 μl) was started by the addition of 10 μM PGH2 with or without 0.1 μCi 3H PGH2 and terminated with 60 μl acetonitrile/HCl, lowering the pH to 3.2. In order to determine the formation of either PGF2α, PGE2 or PGD2, an aliquot (60 μl) was analyzed by reverse-phase-HPLC combined with UV detection (195 nm) and/or radioactivity detection using an online β-RAM detector (Inus System, Inc.). The reverse-phase HPLC column was Nova-Pak C18 (3.9×150 mm, 4 μm particle size) obtained from Waters. The mobile phase was water, acetonitrile and trifluoroacetic acid (70:30:0.007, by vol) with a flow rate of 1 ml/min.
# (§2) For analysis of 12-HHT, a mobile phase of methanol, water and acetic acid (70:30:0,01, by vol) was used and UV detection at 236 nm. The amounts of produced PGE2 and 12-HHT were quantified by integration of the areas under the eluted peaks at 195 and 236 nm, respectively.
# (§3) The membrane fraction (0.02 mg total protein/ml) isolated from bacteria expressing PGE synthase was incubated for 2 min in the presence of PGH2 (10 μM including 1 μCi 3H PGH2) and reduced glutathione (2.5 mM).
# [3] = test system: PGE synthase expression in A549 cells; assay: Induction of PGE synthase protein in A549 cells, Western blot; format: cell-based, human; details: 1 ng/ml, 24 h
# Description: Samples were diluted and boiled for two min in SDS-containing sample buffer (Laemmli, U. K. (1970) Nature 227, 680–5). Proteins were separated through 14% polyacrylamide gels (Novex) and electroblotted (Towbin, H., et al.(1979) PNAS USA 76, 4350–4) onto PVDF (Pall) membranes. Transfer efficiency was visualized using pre-stained standards (Novex). Membranes were then soaked for 1 h at 25° C. in Tris-buffered saline (100 mM Tris-HCl, pH=7.5, 150 mM NaCl) containing 0.1% (v/v) Tween and 5% (w/v) non-fat dried milk. The membrane was subsequently washed twice in 0.1% T-TBS followed by 1 h incubation at 25° C. with the indicated antiserum (1:2000 dilution) in 0.05% (v/v) T-TBS and 2% (w/v) non-fat dried milk. […]
# In order to investigate whether or not PGE synthase may also be regulated by this cytokine, A549 cells were cultured for 24 h in the presence of 1 ng/ml IL-1β. Normal cells as well as cells treated with IL-1β were subsequently analyzed for PGE synthase expression by SDS-PAGE followed by Western blotting.
# Total protein corresponding to 0.2×10^6 cells grown for 24 h in the presence (1 ng/ml) or absence of IL-1β was fractionated by SDS-PAGE and transferred to PVDF membrane. […] Also analyzed was the commercial available, partly purified, PGE synthase from sheep seminal vesicles (6 μg) as well as the membrane fraction from bacteria expressing human PGE synthase (5 μg).
# PGH2 = assay: PGE synthase activity of fractions from cells expressing recombinant protein (PGH2 to PGE2, RP-HPLC); format: biochemical; details: for PGE synthase activity: membrane fraction or microsomes of cells expressing the control protein
# Description: as §1, §2, §3
# In this experiment the various dilutions of the membrane fraction obtained from bacteria expressing PGE synthase were incubated in the presence of PGH2 (10 μM) and GSH (2.5 mM) for 2 min. The PGE2 formation was analyzed and quantified by RP-HPLC and UV detection at 195 nm as described in Materials and Methods above.
# The membrane fraction obtained from bacteria expressing PGE synthase (0.02 mg/ml) was incubated with PGH2 for the indicated times in the presence (filled circles) or absence (open circles) of glutathione. Filled triangles represent non-enzymatic (buffer only) PGE2 formation after incubation with PGH2. The product formation was analyzed by RP-HPLC and PGE2 was detected and quantified using UV absorbance at 195 nm.
molecule,measurement,setting,value
"CCCCC[C@H](O)/C=C/[C@@H]1[C@@H](C/C=C\CCCC(=O)O)[C@@H]2C[C@H]1OO2 (relative stereo) [PGH2, 15(S)-hydroxy-9α, 11α-peroxidoprosta-5-cis-13-trans-dienoic acid]",Km,[1],40 µM
same,Km,[2],150 µM
CCN1C(=O)C=CC1=O [N-ethylmaleimide],enzyme activity after treatment of the membrane fraction,human PGE synthase,abolished
IL-1β: proinflammatory cytokine interleukin-1β,PGE synthase protein expression,[3],induced
"MGST2: microsomal glutathione S-transferase 2 expressed in Sf9 cells, microsomes [reference compound]",PGE synthase activity,PGH2,no PGE synthase activity
B1,PGE synthase activity,PGH2,no PGE synthase activity
B2,glutathione dependent PGE synthase activity,"PGH2; bacterial membrane fraction, PGH2, reduced glutathione",0.25 µmol/min/mg
same,deduced specific activity,PGH2; estimating that 1% of the bacterial membrane protein is MGST1-L1,25 µmol/min/mg
same,specific activity under linear conditions (subtracting background formation),"PGH2; membrane fraction 0.02 mg/ml, PGH2 10 μM, GSH 2.5 mM",250 nmol/min/mg
